# From patent publication US20130316941A1 (Boehringer Ingelheim, published 2013)
# Starred links: 1 amine or outer side, 2 acyl side, 3 side chain; linkers in the order of their positions; H or OH if unused. Non-standard residues stand in square brackets, D forms with d. Groups on a side chain read outwards from the residue. *: point of attachment. γGlu = O=C(O)[C@H](CCC(=O)[*:2])N[*:1]; Palmitoyl = CCCCCCCCCCCCCCCC(=O)*
# What was measured:
# [1] = target: human glucagon receptor (Glucagon-R) (human, UniProt P47871 26-477); experiment: cell-based or functional assay
# human glucagon receptor (Glucagon-R), sequence (P47871 26-477): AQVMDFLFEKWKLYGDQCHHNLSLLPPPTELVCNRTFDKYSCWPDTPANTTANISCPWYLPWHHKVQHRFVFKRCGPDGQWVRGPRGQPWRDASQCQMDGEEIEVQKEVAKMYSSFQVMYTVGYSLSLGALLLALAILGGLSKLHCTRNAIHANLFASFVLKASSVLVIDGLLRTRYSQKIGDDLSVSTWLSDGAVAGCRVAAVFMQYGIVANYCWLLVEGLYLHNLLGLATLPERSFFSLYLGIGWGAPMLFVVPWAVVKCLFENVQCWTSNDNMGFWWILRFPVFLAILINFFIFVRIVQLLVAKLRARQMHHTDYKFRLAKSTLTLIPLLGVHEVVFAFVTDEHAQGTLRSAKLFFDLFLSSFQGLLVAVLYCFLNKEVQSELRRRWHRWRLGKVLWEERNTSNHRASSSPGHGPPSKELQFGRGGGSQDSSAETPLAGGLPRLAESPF
# [2] = target: human glucagon-like peptide 1 receptor (GLP-1R) (human, UniProt P43220 24-463); experiment: cell-based or functional assay
Binder,EC50 values for cAMP generation in HEK293 cells expressing Glucagon receptor [1],EC50 values for cAMP generation in HEK293 cells expressing GLP-1 receptor [2]
"HXHGTFTSDYSRYLDEKRARDFIEWLLSA (HELM PEPTIDE1{H.[dS].H.G.T.F.T.S.D.Y.S.R.Y.L.D.E.K.R.A.R.D.F.I.E.W.L.L.S.A.[am]}|PEPTIDE2{[CCCCCCCCCCCCCCCC(=O)[*:2]].[gGlu]}$PEPTIDE1,PEPTIDE2,17:R3-2:R2$$$V2.0; SMILES CCCCCCCCCCCCCCCC(=O)N[C@@H](CCC(=O)NCCCC[C@H](NC(=O)[C@H](CCC(=O)O)NC(=O)[C@H](CC(=O)O)NC(=O)[C@H](CC(C)C)NC(=O)[C@H](Cc1ccc(O)cc1)NC(=O)[C@H](CCCNC(=N)N)NC(=O)[C@H](CO)NC(=O)[C@H](Cc1ccc(O)cc1)NC(=O)[C@H](CC(=O)O)NC(=O)[C@H](CO)NC(=O)[C@@H](NC(=O)[C@H](Cc1ccccc1)NC(=O)[C@@H](NC(=O)CNC(=O)[C@H](Cc1c[nH]cn1)NC(=O)[C@@H](CO)NC(=O)[C@@H](N)Cc1c[nH]cn1)[C@@H](C)O)[C@@H](C)O)C(=O)N[C@@H](CCCNC(=N)N)C(=O)N[C@@H](C)C(=O)N[C@@H](CCCNC(=N)N)C(=O)N[C@@H](CC(=O)O)C(=O)N[C@@H](Cc1ccccc1)C(=O)N[C@H](C(=O)N[C@@H](CCC(=O)O)C(=O)N[C@@H](Cc1c[nH]c2ccccc12)C(=O)N[C@@H](CC(C)C)C(=O)N[C@@H](CC(C)C)C(=O)N[C@@H](CO)C(=O)N[C@@H](C)C(N)=O)[C@@H](C)CC)C(=O)O) [H-H-DSer-HGTFTSDYSRYLDE-K(Hexadecanoyl-isoGlu)-RARDFIEWLLSA-NH2 [Compound 11]]",90 pM,150 pM
H-H[dS]QGTFTSDYSRYLDEK([γGlu-Palmitoyl])RARDFIEWLLSA-NH2 [H-H-DSer-QGTFTSDYSRYLDE-K(Hexadecanoyl-isoGlu)-RARDFIEWLLSA-NH2 [Compound 8]],200 pM,200 pM
"HXQGTFTSDYSRYLDEKRARDFIEWLLSA (HELM PEPTIDE1{H.[Aib].Q.G.T.F.T.S.D.Y.S.R.Y.L.D.E.K.R.A.R.D.F.I.E.W.L.L.S.A.[am]}|PEPTIDE2{[CCCCCCCCCCCCCCCC(=O)[*:2]].[gGlu]}$PEPTIDE1,PEPTIDE2,17:R3-2:R2$$$V2.0; SMILES CCCCCCCCCCCCCCCC(=O)N[C@@H](CCC(=O)NCCCC[C@H](NC(=O)[C@H](CCC(=O)O)NC(=O)[C@H](CC(=O)O)NC(=O)[C@H](CC(C)C)NC(=O)[C@H](Cc1ccc(O)cc1)NC(=O)[C@H](CCCNC(=N)N)NC(=O)[C@H](CO)NC(=O)[C@H](Cc1ccc(O)cc1)NC(=O)[C@H](CC(=O)O)NC(=O)[C@H](CO)NC(=O)[C@@H](NC(=O)[C@H](Cc1ccccc1)NC(=O)[C@@H](NC(=O)CNC(=O)[C@H](CCC(N)=O)NC(=O)C(C)(C)NC(=O)[C@@H](N)Cc1c[nH]cn1)[C@@H](C)O)[C@@H](C)O)C(=O)N[C@@H](CCCNC(=N)N)C(=O)N[C@@H](C)C(=O)N[C@@H](CCCNC(=N)N)C(=O)N[C@@H](CC(=O)O)C(=O)N[C@@H](Cc1ccccc1)C(=O)N[C@H](C(=O)N[C@@H](CCC(=O)O)C(=O)N[C@@H](Cc1c[nH]c2ccccc12)C(=O)N[C@@H](CC(C)C)C(=O)N[C@@H](CC(C)C)C(=O)N[C@@H](CO)C(=O)N[C@@H](C)C(N)=O)[C@@H](C)CC)C(=O)O) [H-H-Aib-QGTFTSDYSRYLDE-K(Hexadecanoyl-isoGlu)-RARDFIEWLLSA-NH2 [Compound 9]]",100 pM,50 pM
"HXPGTFTSDYSRYLDEKRARDFIEWLLSA (HELM PEPTIDE1{H.[dS].P.G.T.F.T.S.D.Y.S.R.Y.L.D.E.K.R.A.R.D.F.I.E.W.L.L.S.A.[am]}|PEPTIDE2{[CCCCCCCCCCCCCCCC(=O)[*:2]].[gGlu]}$PEPTIDE1,PEPTIDE2,17:R3-2:R2$$$V2.0; SMILES CCCCCCCCCCCCCCCC(=O)N[C@@H](CCC(=O)NCCCC[C@H](NC(=O)[C@H](CCC(=O)O)NC(=O)[C@H](CC(=O)O)NC(=O)[C@H](CC(C)C)NC(=O)[C@H](Cc1ccc(O)cc1)NC(=O)[C@H](CCCNC(=N)N)NC(=O)[C@H](CO)NC(=O)[C@H](Cc1ccc(O)cc1)NC(=O)[C@H](CC(=O)O)NC(=O)[C@H](CO)NC(=O)[C@@H](NC(=O)[C@H](Cc1ccccc1)NC(=O)[C@@H](NC(=O)CNC(=O)[C@@H]1CCCN1C(=O)[C@@H](CO)NC(=O)[C@@H](N)Cc1c[nH]cn1)[C@@H](C)O)[C@@H](C)O)C(=O)N[C@@H](CCCNC(=N)N)C(=O)N[C@@H](C)C(=O)N[C@@H](CCCNC(=N)N)C(=O)N[C@@H](CC(=O)O)C(=O)N[C@@H](Cc1ccccc1)C(=O)N[C@H](C(=O)N[C@@H](CCC(=O)O)C(=O)N[C@@H](Cc1c[nH]c2ccccc12)C(=O)N[C@@H](CC(C)C)C(=O)N[C@@H](CC(C)C)C(=O)N[C@@H](CO)C(=O)N[C@@H](C)C(N)=O)[C@@H](C)CC)C(=O)O) [H-H-DSer-PGTFTSDYSRYLDE-K(Hexadecanoyl-isoGlu)-RARDFIEWLLSA-NH2 [Compound 14]]",190 pM,120 pM
"HXHGTFTSDYSRYLDEKRARDFIEWLLSA (HELM PEPTIDE1{H.[Aib].H.G.T.F.T.S.D.Y.S.R.Y.L.D.E.K.R.A.R.D.F.I.E.W.L.L.S.A.[am]}|PEPTIDE2{[CCCCCCCCCCCCCCCC(=O)[*:2]].[gGlu]}$PEPTIDE1,PEPTIDE2,17:R3-2:R2$$$V2.0; SMILES CCCCCCCCCCCCCCCC(=O)N[C@@H](CCC(=O)NCCCC[C@H](NC(=O)[C@H](CCC(=O)O)NC(=O)[C@H](CC(=O)O)NC(=O)[C@H](CC(C)C)NC(=O)[C@H](Cc1ccc(O)cc1)NC(=O)[C@H](CCCNC(=N)N)NC(=O)[C@H](CO)NC(=O)[C@H](Cc1ccc(O)cc1)NC(=O)[C@H](CC(=O)O)NC(=O)[C@H](CO)NC(=O)[C@@H](NC(=O)[C@H](Cc1ccccc1)NC(=O)[C@@H](NC(=O)CNC(=O)[C@H](Cc1c[nH]cn1)NC(=O)C(C)(C)NC(=O)[C@@H](N)Cc1c[nH]cn1)[C@@H](C)O)[C@@H](C)O)C(=O)N[C@@H](CCCNC(=N)N)C(=O)N[C@@H](C)C(=O)N[C@@H](CCCNC(=N)N)C(=O)N[C@@H](CC(=O)O)C(=O)N[C@@H](Cc1ccccc1)C(=O)N[C@H](C(=O)N[C@@H](CCC(=O)O)C(=O)N[C@@H](Cc1c[nH]c2ccccc12)C(=O)N[C@@H](CC(C)C)C(=O)N[C@@H](CC(C)C)C(=O)N[C@@H](CO)C(=O)N[C@@H](C)C(N)=O)[C@@H](C)CC)C(=O)O) [H-H-Aib-HGTFTSDYSRYLDE-K(Hexadecanoyl-isoGlu)-RARDFIEWLLSA-NH2 [Compound 12]]",140 pM,60 pM
"HSHGTFTSDYSRYLDEKRARDFIEWLLSA (HELM PEPTIDE1{H.S.H.G.T.F.T.S.D.Y.S.R.Y.L.D.E.K.R.A.R.D.F.I.E.W.L.L.S.A.[am]}|PEPTIDE2{[CCCCCCCCCCCCCCCC(=O)[*:2]].[gGlu]}$PEPTIDE1,PEPTIDE2,17:R3-2:R2$$$V2.0; SMILES CCCCCCCCCCCCCCCC(=O)N[C@@H](CCC(=O)NCCCC[C@H](NC(=O)[C@H](CCC(=O)O)NC(=O)[C@H](CC(=O)O)NC(=O)[C@H](CC(C)C)NC(=O)[C@H](Cc1ccc(O)cc1)NC(=O)[C@H](CCCNC(=N)N)NC(=O)[C@H](CO)NC(=O)[C@H](Cc1ccc(O)cc1)NC(=O)[C@H](CC(=O)O)NC(=O)[C@H](CO)NC(=O)[C@@H](NC(=O)[C@H](Cc1ccccc1)NC(=O)[C@@H](NC(=O)CNC(=O)[C@H](Cc1c[nH]cn1)NC(=O)[C@H](CO)NC(=O)[C@@H](N)Cc1c[nH]cn1)[C@@H](C)O)[C@@H](C)O)C(=O)N[C@@H](CCCNC(=N)N)C(=O)N[C@@H](C)C(=O)N[C@@H](CCCNC(=N)N)C(=O)N[C@@H](CC(=O)O)C(=O)N[C@@H](Cc1ccccc1)C(=O)N[C@H](C(=O)N[C@@H](CCC(=O)O)C(=O)N[C@@H](Cc1c[nH]c2ccccc12)C(=O)N[C@@H](CC(C)C)C(=O)N[C@@H](CC(C)C)C(=O)N[C@@H](CO)C(=O)N[C@@H](C)C(N)=O)[C@@H](C)CC)C(=O)O) [H-HSHGTFTSDYSRYLDE-K(Hexadecanoyl-isoGlu)-RARDFIEWLLSA-NH2 [Compound 10]]",60 pM,470 pM
"HXQGTFTSDYSKYLDKRRAKDFIEWLLSA (HELM PEPTIDE1{H.[Aib].Q.G.T.F.T.S.D.Y.S.K.Y.L.D.K.R.R.A.K.D.F.I.E.W.L.L.S.A.[am]}|PEPTIDE2{[CCCCCCCCCCCCCCCC(=O)[*:2]].[gGlu]}$PEPTIDE1,PEPTIDE2,16:R3-2:R2$$$V2.0; SMILES CCCCCCCCCCCCCCCC(=O)N[C@@H](CCC(=O)NCCCC[C@H](NC(=O)[C@H](CC(=O)O)NC(=O)[C@H](CC(C)C)NC(=O)[C@H](Cc1ccc(O)cc1)NC(=O)[C@H](CCCCN)NC(=O)[C@H](CO)NC(=O)[C@H](Cc1ccc(O)cc1)NC(=O)[C@H](CC(=O)O)NC(=O)[C@H](CO)NC(=O)[C@@H](NC(=O)[C@H](Cc1ccccc1)NC(=O)[C@@H](NC(=O)CNC(=O)[C@H](CCC(N)=O)NC(=O)C(C)(C)NC(=O)[C@@H](N)Cc1c[nH]cn1)[C@@H](C)O)[C@@H](C)O)C(=O)N[C@@H](CCCNC(=N)N)C(=O)N[C@@H](CCCNC(=N)N)C(=O)N[C@@H](C)C(=O)N[C@@H](CCCCN)C(=O)N[C@@H](CC(=O)O)C(=O)N[C@@H](Cc1ccccc1)C(=O)N[C@H](C(=O)N[C@@H](CCC(=O)O)C(=O)N[C@@H](Cc1c[nH]c2ccccc12)C(=O)N[C@@H](CC(C)C)C(=O)N[C@@H](CC(C)C)C(=O)N[C@@H](CO)C(=O)N[C@@H](C)C(N)=O)[C@@H](C)CC)C(=O)O) [H-H-Aib-QGTFTSDYSKYLD-K(Hexadecanoyl-isoGlu)-RRAKDFIEWLLSA-NH2 [Compound 1]]",150 pM,120 pM
